Source: patent US20210395716

Biological target: β-amyloid peptide (1-42) (UniProt P05067)
Sequence (P05067 whole entry, looked up, tested part not stated): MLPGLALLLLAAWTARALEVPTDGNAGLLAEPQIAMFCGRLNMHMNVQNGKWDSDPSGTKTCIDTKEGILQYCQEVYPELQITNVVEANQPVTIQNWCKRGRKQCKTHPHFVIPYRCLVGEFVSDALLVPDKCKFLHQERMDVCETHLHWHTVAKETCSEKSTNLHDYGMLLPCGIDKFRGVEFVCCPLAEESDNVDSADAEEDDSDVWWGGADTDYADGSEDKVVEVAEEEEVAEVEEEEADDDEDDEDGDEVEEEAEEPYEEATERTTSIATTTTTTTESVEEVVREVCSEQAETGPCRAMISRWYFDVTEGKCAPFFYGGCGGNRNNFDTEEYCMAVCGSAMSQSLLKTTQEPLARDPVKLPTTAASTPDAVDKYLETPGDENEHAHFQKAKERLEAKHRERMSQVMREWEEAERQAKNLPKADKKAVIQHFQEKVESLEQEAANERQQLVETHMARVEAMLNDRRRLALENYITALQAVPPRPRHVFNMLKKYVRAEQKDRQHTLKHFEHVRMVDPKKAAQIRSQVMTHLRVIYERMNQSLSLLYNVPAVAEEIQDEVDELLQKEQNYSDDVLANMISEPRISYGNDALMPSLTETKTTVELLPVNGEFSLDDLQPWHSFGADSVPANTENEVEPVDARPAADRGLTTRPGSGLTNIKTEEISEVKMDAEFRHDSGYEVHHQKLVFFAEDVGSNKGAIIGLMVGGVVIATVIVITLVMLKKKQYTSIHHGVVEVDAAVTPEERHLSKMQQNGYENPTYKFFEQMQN

With yeast NEP (yNEP) the Abeta HPLC, per hr. (sample yNEP) was 0.46 per hr, the Abeta HPLC, rate (sample yNEP) (million sq unt/min) was 0.0137 and the Abeta HPLC, units/µL (sample yNEP) was 0.0274 units/µL. For the same substance, the Abeta HPLC, units/µg (sample yNEP) was 0.008 units/µg.
